{
  "source": "the DeepSol protein solubility set",
  "data": [
    {"test": "soluble on expression in E. coli; label from the status in PepcDB or PDB records", "values": [
      {"sequence": "MSLFIPKRVIFEKDSLDYEAAKNILNKFKDKKDVEIINITSNKLKQHIPGEDFYAQYREGKKTLVVGTKKSLKFQSCKPSAHYQLPLISGCMGQCEYCYLNTKLGDKPFVKVHVNIDEILSQAQKYIDERLPEITIFEGAATSDPIPVEPYTHSLEKAIVFFGKHENARFRFVTKYNDIDSLLDLEHNGHTEMRFSINTSSVINKYEHATASRDLRIEASIKAAKAGYPIGFLVAPVFIYPNWKEEYHDLLLSLSKNLPRDLKTPVTFEIISHRYTSTAKNIILQVFPESELPMSDEERKFKYGQFGYGKYVYPKENIDEMKQFFIKEIEDLFENKEIKYVIEGHHHHHH", "soluble on expression in E. coli": "soluble"},
      {"sequence": "MSLFPILETDRLILRQITDQDAEAIFACFSNDEVTRYYGLENMESIEQAISMIQTFAALYQEKRGIRWGIERRDTKELIGTIGFHALAQKHRRAEIGYEIIPEHWRNGFASEVISKVVSYGFSALGLSRIGAVVFTDNEASNRLLLKMGFQKEGVLRQYMYSKWDSIEGGSHHHHHH", "soluble on expression in E. coli": "soluble"},
      {"sequence": "MSLGEWKDELIHNADKFDFPIFTPYYELTDEQRRTLWEGNQYFHGINDFFKMLEENQYKIQYRVMLARYRGKTICPKCHGTRLKPEAGYVRVDGKSISELVDLPITELKEFFDHLNLNEHDSNVARRILIEINSRIRFLIDVGLGYLTLNRLSNSLSGGESQRINLATSLGSSLVGSLYILDEPSIGLHSRDTDRLIRVLRQLQELGNTVVVVEHDEEIIRAADYIIDIGPNAGRLGGEVVYQGDMKDLKKGSNSHTVRYLLGEEEIPVPEHRRPWNNYIELTGARENNLKGVNVKFPLNVMTVVTGVSGSGKSTLVRDIFYRALKRELDECSDRPGEFSSISGSLRDLRNIEFVDQNPIGKSSRSNPVTYIKAYDEIRKLWAEQPLAKQMGYTAGHFSFNSEGGRCEECKGEGTITVEMQFMADLVLECESCHGKRFKADTLEVKFQDKNIYDVLEMTVNQAVEFFTEHGQKKIVKRLLPLQDVGLGYIKLGQSSSTLSGGENQRVKLAFYLSQEKADPTLFIFDEPTTGLHFHDIRKLLDAFDALIRRGHSIVIIEHNMDVIKCADYVIDLGPEGGDKGGNIVAVGTPEEVAACGASYTGQFLKEKLAEGHHHHHH", "soluble on expression in E. coli": "not soluble"},
      {"sequence": "MSLGFVPVRGLHHFAYRCRDAEETRQFYEGILGLPLVHVVRAEEVPSTGEYCPYMHLFFEMKDGSCVAFFDLDDDTVPLPSSNTPVWAQHLALRVDSVAAVEEAKRKLEQAGVKVLGPVDHDGFVCSIYFFDPNGVRLELTTDTADSTEMARYRREARPGCDAWTLEKSLRRATGQGSVLREGHHHHHH", "soluble on expression in E. coli": "not soluble"},
      {"sequence": "MSLGGDRFYDLISAVHKSIRGSAPDAALYWYARIITAGGDPLYVARRLLAIASEDIGNADPRAMQVALSAWDCFTRVGAAEGERAIAQAIVYLAVAPKSNAVYQAFNAAKALAKQAPDYDVPRHLTNAPTQLLKELGNHAEYRYAHDEPNAYAAGENYFPEPLKDTRFYFPGARGMEIKIKEKLDWLRNLDQQSENIREGHHHHHH", "soluble on expression in E. coli": "soluble"},
      {"sequence": "MSLGHAKEVKIGVILGFTGPIESLTPSMADGAELAMKEVTDSGLLLDGATVTSVRADSTCVDAAAATAAAERLVTSDKVDGIMGADCSGVTGAILSNVAVPNGVVMISPSATSPALSTADDNGLFFRTAPSDARQGVVMTEVLMEEGIKEVALTYTNNDYGKGLADSFQAAFEAAGGTVTISAAHEDGKADYSAEVGALAAAGGDRLVVAGYVDQGGSGIVRSAIDSGAFDTFHFPDGMIGAKLEENFGDEIEGSSGQHPGTDSPGVAKFSEMVGGAFDSTSPFTPEAYDAAALIMLAMQAANSKDSGDYKDHVMHVANAPGEKIYPGELAKALQIIKDGGEVDYVGATAVELIGPGESAGNYRQITIEGGKITTAKFREGHHHHHH", "soluble on expression in E. coli": "soluble"},
      {"sequence": "MSLGKATGFMEYDRIPSPGRDPKSRTRDWNEYSLPMPVADLTLQAARCMDCGVPFCSVGMEIKNGVSGCPLHNLIPEWNDAVYRGDWYEALQLLLKTNNFPEFTGRICPAPCEGGCTVAISEPAVGIKSIEKAIIDRGFEEGWIKPQPPKKRTGKRIAVIGSGPAGLACADQLNKAGHSVTVIEKSDRIGGLLMYGIPTMKLEKEQVTRRVNLMAEEGIEFVTGVAAGTDVTFAELRAEYDSIVLATGAGNARDIPLAGRDAAGIHFAVPYLTQSTRDNLDNGGVQTLSAKDKNVVIIGGGDTGADCVATALRQGAKSIYQFGIQDKLPELRNGENPWPQYPRVFKMDYAHEEAEAVYGRDPREYLINTTSFEKDAAGNLVGLHTVEVTEDKETRQYTPVEGSEKYFEVDMVLIAIGFSGTTEDIFTNFGVGKTERHTIDAAKGFYRTSEEGVFACGDARHGQSLVVTAIAEGREAAREVDFYLMGETFLEGHHHHHH", "soluble on expression in E. coli": "soluble"},
      {"sequence": "MSLGKKELIGFQVGVRESTQSWHELLVEAKTRGLKIAPEIAVGDGALGFWKALDEVFPATRHQRCWVHKTANILNKVAVSVQASMKKDLREVYLASNRASAEVAIDVFAEKYGAKYDKAVECLTKDRDAMLAFYEFPAEHWDHLRTTNPIESVFATVRHRTVRTKGSLSSTTAKLMVFKLLCAASKTWRRLKGTNQLPKVSAGVRFENGIEEGHHHHHH", "soluble on expression in E. coli": "not soluble"},
      {"sequence": "MSLGKSNVLVTMPVAPTMEVKSFPILDQCVGQVGLNFELSFTGAPPYYYNTKIYKLENGERKLYDAKRYTSEGTRNRFSYSPPKEGNYEIVFDTVSNKLFTEPIKLEPVKEYTFKTSMRVKPSASLKLHHDLKLCLGDHSSVPVALKGQGPFTLTYDIIETFSSKRKTFEIKEIKTNEYVIKTPVFTTGGDYILSLVSIKDSTGCVVGLSQPDAKIQVRRDIPSAAFNFFEPIKEAKIKHGSVTEIPLKLSGEGPFTVKFKHMDYDGNIVKEFENKFQNSYKPALKVSKEGLYQLVDIRDSSCQGNVIYRNSLYKVSFLEKPKFAIQDNHHITKVTENLFSKEEVCQGMEGTVDLALFGSPPFILEYDLMAPNGHISTKKIQVATKYASLKLPNQIPGEYITTIKAIFDGNYGESDIHFREHQSELIIKQTVHPIPDVAFADGGKTLRACAANVDQISFLEPINLKFLQGESPFSITFSVYHESTSRTDQYTIDNIDSENFSFEKLYEGMKLGNHAITIDSVVDANGCVNSLISGPRNQILVSITDAPKIHILDPSTEYCVGDYVAYQLNGVAPFMIKYEFNGIPLKSKERSSQFVRLASEPGIISITSLQDSSSQCIVDFTNPKLKSEFDDEGHHHHHH", "soluble on expression in E. coli": "soluble"},
      {"sequence": "MSLGKYFGTDGVRGVANSELTPELAFRLGRMGGYVLTRHVGEHPRVLVARDTRISGEMLESALIAGLVSVGIEVMRLGVISTPGVAYLTKAQGASASVMISASHNPVDDNGIKFFGSDGFKLSDDQEEEIEQLLDTAEDTLPRPSGEGLGTVSDYFEGKQKYIQYLKQTIENDFNGYHIALDCANGATSGLATHLFADLDADISSMGASPNGLNINDGVGSTHPEALAAFVLDKKADVGLAFDGDGDRVIAIDEIGQIVDGDKIMFICAKYLREQGLLNNNTIVSTVMSNLGFYKGLKELEIEDVQTAVGDRYVVEAMREGNYNLGGEQSGHIIFLDHNTTGDGLLSGIQLINVMKATGKKLSELAAEMKTFPQKLENIRVSDKNHVTDNPKVSKVIGEVEAEMAGNGRVLVRPSGTEPLVRVMVEAATKEETDEYCERISAVVRSEMALNDEGHHHHHH", "soluble on expression in E. coli": "soluble"},
      {"sequence": "MSLGLLDNVKKMVKKEATENPQQTSDDQKQVQAIHVTNGIDPKVIDAMNERMTKIENDLGKLSGEMEGQKKTLNDIKNELEGIKENVKMVVSLYELVSRDFNPFMDKTPEEIRGITDTLAEQVNNVKQLVEAAIKDLRELYGVPDIDQFIQMEEKKEGHHHHHH", "soluble on expression in E. coli": "soluble"},
      {"sequence": "MSLGLPKMEVFQEYYGLPPPPGAIGPFLRLNPGDIVELTKAEAEQNWWEGRNTSTNEIGWFPCNRVKPYVHGPPQDLSVHLWYAGPMERAGAESILANRSDGTFLVRQRVKDAAEFAISIKYNVEVKHIKIMTAEGLYRITEKKAFRGLTELVEFYQQNSLKDCFKSLDTTLQFPFKEPEKRTISRPAVGSTKYFGTAKARYDFCARDRSELSLKEGDIIKILNKKGQQGWWRGEIYGRVGWFPANYVEEDYSEEGHHHHHH", "soluble on expression in E. coli": "soluble"},
      {"sequence": "MSLGMPSKQREYSNRFFDSTVWNDFAFRDDDVVIASYAKAGTTWVQQIVAQLIFGGAEEIEVSRLSPWFDSVYPDKATKQRLLAEQRHRRFVKTHLPADALVLSERARYLYVGRDARDIVWSLYDHQRAVSADAQARLDAEPSSNGKLRVMPPPTCSVEDYFQTWMRADGAPLWPFWEGVRSWWALRDYDNVLLVHYAALLHDLPAQVRRIAAFLDIPLDAPCCERVLAHCSLDYMRAHAARYVPQGAGFWRDGGRAFFNQGLNGRWRDRLAPAVDAAYRQHVVAELGAECARWLATGDVASEGHHHHHH", "soluble on expression in E. coli": "soluble"},
      {"sequence": "MSLGPVVHQTSSRFRRRSAQPTWDMSDGCADAIAFRVDSEGIKLHGFGIYLPTEPDRRNFVGEIMMLSPDSSEKWTCLLRVTAEMSSEEKEVGIVRFPEYVLLSPGVTYAVKVNMMKNTKTFCGEGGVTQVHLLNGARLFFSGCSMSQNGTTVQRGQLPYLIYSILDQSNSLQIKQEGHHHHHH", "soluble on expression in E. coli": "soluble"},
      {"sequence": "MSLGQVEVIDRRQSVFGDDIQLQKRSSSYEIISNGVFLMSTENGRSEREMVTLGAQHMKNAVHSVLIGGLGVGITADEAVHLNDHVQVHVVEIEPSVVEWQYRYLYPFSNQALEHERTAIIISDIQQWLRTNERTYDLICLDTDNGPDWMVHKQNASLYGKIGLELVRERVRVGGAVSFWSASASESFLHELETLFDRVYEHAVSISHTLPPDYVYVACREGHHHHHH", "soluble on expression in E. coli": "not soluble"},
      {"sequence": "MSLGRLEKRFSFAFCSYWRPFRRPLRTHHGLWSVREGILIRLTDRETGCQGYGEIAPIPWFGSETLEQALAFCRQLPPLLSEAYILGIPEALPACRFGLEGAWLACRDPDWLNKDLSLLSFCELLGETLPPESYKDSYKDSVPLTRSVYKLKVGRDPMQQELEKLEQWLERLPPGSRLRLDANGGLSLAEAHRWLMVCDRLNQDSPGKIEFLEQPLPPDQHSHLVELSRQYQTPIALDESVACLEQLQAVHRSGWTGILVVKPSLVGSCIALREYLSRHPGLDLVFSSALETAIGAWHGLAWAGSLQAKTASPRAVGWGVGEFFQEGDPLTLTQLSAQERAALMQAVWERYSREGHHHHHH", "soluble on expression in E. coli": "soluble"},
      {"sequence": "MSLHEMSFAEAIIRNVLRFAEEKQAKTVTSVRVRVGELLLINPEQLQFCFSVASKGTIAEGAKLEISVERADIRCLLCGRELSKDEMLCECGGFAQVKGGKDFILESVVVEVEGHHHHHH", "soluble on expression in E. coli": "soluble"},
      {"sequence": "MSLHHLTTYITHDTLISALGFGTQENLEAIRSYHSGITLQTDKRIADTPLLAATLSQERLQQQAEAIGVSGYPRMEQLFILTINELIRQSGQTLEDKTCGLILSTTKGNIDLLARHTEHPDEAVFLWKMAENIAGYFHAEERVHVISNACISGVSALIAGKRMIENGIYRRVIVAGGDLLSHFITSGFGSFRSLSSRPCRPYDSSRDGLNLGEACGAVLLSSEGTEEHVILSGGAVSNDANHISGPSRTGDGLYFAIRQAMQEAGTAPQDISFVNAHGTATVYNDEMESKALTLAHLEQVPVHSLKPYFGHTLGASGIIESIVCMHELKQGILFGTPGYETPGVPMPIPVYATHRSIPMKHCVKTASGFGGCNAAIVLSLPEYTPFKDEDNTLPEIRCTREVRIENSSVFINNELIFHSEEPDFGTFIRDTYKKTGGNNLKFYKMDDLCKLGYVAAEYLLEGKTFAPLEMGMLLANAASSLHTDIRHQQLIDREGDQAASPAVFVYTLPNVVSGEICIRHKIQGENTFFITEAYQPEKLERYARIVMQKGKLNYCIIGWCELWKNTYKAVFKLIEKEGHHHHHH", "soluble on expression in E. coli": "soluble"},
      {"sequence": "MSLHLNDQWVLCAPTDNFENKKEIFFTPQGAFGTGLHETTQDILKFIVEEDFEGKSLLDLGTGSGILSIAAGVKGASKIVAVDIRDVEDEVLLNASLNELENIEVVVGNVLHEEYKLNEKFDWIFINIGGEETAMFMDFIEEHIEKTGKLLVSGLVEWSFDWVKEKVENKGFKLNKKFQTNEWCTAIFSKEGHHHHHH", "soluble on expression in E. coli": "soluble"}
    ]}
  ]
}
